For 1 substance, k (rate constant of subunit exchange) results are on record in PMC3275625.

The test concerns the target SITS-labeled human αB-crystallin wild type (human) (UniProt P02511). In words: FRET or BRET; in vitro subunit exchange: equal amounts (0.4 mg/ml) of SITS-labeled αB-wt (donor) and LYI-labeled αA-wt or mutant (acceptor) mixed at 37°C in 20 mM MOPS, 100 mM NaCl, pH 7.9; excitation 336 nm, rate constant k from the increase of acceptor emission at 515 nm, fit Ft/F0 = A1+A2e^-kt. Background: In BRET a luciferase serves as donor, and the signal depends on an acceptor being close.

Chain of SITS-labeled human αB-crystallin wild type (human) (P02511 whole entry): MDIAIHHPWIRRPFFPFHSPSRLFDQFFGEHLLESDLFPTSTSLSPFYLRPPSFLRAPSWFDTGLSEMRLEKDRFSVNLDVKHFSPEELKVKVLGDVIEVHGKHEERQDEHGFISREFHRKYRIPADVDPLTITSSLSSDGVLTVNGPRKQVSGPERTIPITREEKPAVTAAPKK
Chain of LYI-labeled human αA-crystallin wild type (P02489 whole entry): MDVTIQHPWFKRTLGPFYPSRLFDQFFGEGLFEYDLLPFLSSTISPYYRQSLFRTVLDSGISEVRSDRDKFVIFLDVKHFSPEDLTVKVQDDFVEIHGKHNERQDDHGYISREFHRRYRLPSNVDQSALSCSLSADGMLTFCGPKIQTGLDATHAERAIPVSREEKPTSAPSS

“LYI-labeled human αA-crystallin wild type (from UniProt P02489 1-173) (natural protein)” gave a k (rate constant of subunit exchange) of 0.000657 S^-1.
